Patent US20250171562A1 (ALK ABELL, published 2025)
Residue numbers refer to the chain shown, from its start. In names and notes the source's numbering stands. Values belong to the binder of their own block, whether it stands above or below them.

Target: T1, recombinant human IgE (human, UniProt P01854-1 1-428)
T1 construct: made in-house (ALK); preloaded on immobilised FcεRIα in the displacement ELISA
Test: IgE-FcεRIα displacement ELISA
Procedure, shortened: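 Streptavidin-coated plates carried site-specifically biotinylated recombinant human FcεRIα, loaded with recombinant human IgE at 13 ng/ml. sdAbs in a pM–μM series were added for 1 h, and displaced IgE was washed off. Percent displacement was the signal reduction versus the no-sdAb control, giving EC50 and maximal effect.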

T1 sequence (P01854 other isoform, or with tags, fused parts or gaps): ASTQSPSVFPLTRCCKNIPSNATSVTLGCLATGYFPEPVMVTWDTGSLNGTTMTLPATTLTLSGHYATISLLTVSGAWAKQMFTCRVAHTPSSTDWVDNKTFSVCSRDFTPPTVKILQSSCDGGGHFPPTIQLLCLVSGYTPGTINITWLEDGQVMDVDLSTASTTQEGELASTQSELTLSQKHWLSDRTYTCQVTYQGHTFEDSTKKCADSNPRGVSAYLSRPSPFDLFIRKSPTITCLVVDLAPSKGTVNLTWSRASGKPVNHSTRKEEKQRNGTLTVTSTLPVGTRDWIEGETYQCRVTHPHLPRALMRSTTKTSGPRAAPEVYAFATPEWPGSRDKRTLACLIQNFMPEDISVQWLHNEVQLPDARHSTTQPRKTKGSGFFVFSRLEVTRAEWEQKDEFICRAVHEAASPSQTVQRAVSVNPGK

EC50: 480 nM | Max effect: 65%
B2: CIgG4F1A1(G4S)3 (Fc fusion)
chain 1: GPPCPPCPAPEFLGGPSVFLFPPKPKDTLMISRTPEVTCVVVDVSQEDPEVQFNWYVDGVEVHNAKTKPREEQFNSTYRVVSVLTVLHQDWLNGKEYKCKVSNKGLPSSIEKTISKAKGQPREPQVYTLPPCQEEMTKNQVSLWCLVKGFYPSDIAVEWESNGQPENNYKTTPPVLDSDGSFFLYSRLTVDKSRWQEGNVFSCSVMHEALHNHYTQKSLSLSLGKGGGGSGGGGSGGGGSDVQLQESGGGLVQAGGSLKLSCAASGGSLSRYDMGWFRQAPGKEREFVARISWSGTTKYYADAVKGRFAISRDNAKNTVYLQMNSLKPEDTAVYYCAAAFYGNRGYYDVNAYTSSGQGTQVTVS
chain 2: GPPCPPCPAPEFLGGPSVFLFPPKPKDTLMISRTPEVTCVVVDVSQEDPEVQFNWYVDGVEVHNAKTKPREEQFNSTYRVVSVLTVLHQDWLNGKEYKCKVSNKGLPSSIEKTISKAKGQPREPQVCTLPPSQEEMTKNQVSLSCAVKGFYPSDIAVEWESNGQPENNYKTTPPVLDSDGSFFLVSRLTVDKSRWQEGNVFSCSVMHEALHNHYTQKSLSLSLGKGGGGSGGGGSGGGGSEVQLLESGGGLVQPGGSLRLSCAASGFTFGNYDMAWVRQAPGKRPEWVSSIDTGGDITHYADSVKGRFTISRDNAKNTLYLQMNSLRPEDTAVYWCATDEEYALGPNEFDYYGQGTLVTVSS

Max effect: 20%
B4: CIgG4F2A1(G4S)1 (Fc fusion)
chain 1: GPPCPPCPAPEFLGGPSVFLFPPKPKDTLMISRTPEVTCVVVDVSQEDPEVQFNWYVDGVEVHNAKTKPREEQFNSTYRVVSVLTVLHQDWLNGKEYKCKVSNKGLPSSIEKTISKAKGQPREPQVYTLPPCQEEMTKNQVSLWCLVKGFYPSDIAVEWESNGQPENNYKTTPPVLDSDGSFFLYSRLTVDKSRWQEGNVFSCSVMHEALHNHYTQKSLSLSLGKGGGGSDVQLQESGGGLVQAGGSLKLSCAASGGSLSRYDMGWFRQAPGKEREFVARISWSGDTKYYADAVEGRFAISRDNAQNTVYLQMNSLKPEDTAVYYCAVALYGNRGYYDVNTYSYWGQGTRVTVS
chain 2: GPPCPPCPAPEFLGGPSVFLFPPKPKDTLMISRTPEVTCVVVDVSQEDPEVQFNWYVDGVEVHNAKTKPREEQFNSTYRVVSVLTVLHQDWLNGKEYKCKVSNKGLPSSIEKTISKAKGQPREPQVCTLPPSQEEMTKNQVSLSCAVKGFYPSDIAVEWESNGQPENNYKTTPPVLDSDGSFFLVSRLTVDKSRWQEGNVFSCSVMHEALHNHYTQKSLSLSLGKGGGGSEVQLLESGGGLVQPGGSLRLSCAASGFTFGNYDMAWVRQAPGKRPEWVSSIDTGGDITHYADSVKGRFTISRDNAKNTLYLQMNSLRPEDTAVYWCATDEEYALGPNEFDYYGQGTLVTVSS

Max effect: 0%
B5: CIgG4F1A1(RS) (Fc fusion)
chain 1: GPPCPPCPAPEFLGGPSVFLFPPKPKDTLMISRTPEVTCVVVDVSQEDPEVQFNWYVDGVEVHNAKTKPREEQFNSTYRVVSVLTVLHQDWLNGKEYKCKVSNKGLPSSIEKTISKAKGQPREPQVYTLPPCQEEMTKNQVSLWCLVKGFYPSDIAVEWESNGQPENNYKTTPPVLDSDGSFFLYSRLTVDKSRWQEGNVFSCSVMHEALHNHYTQKSLSLSLGKRSDVQLQESGGGLVQAGGSLKLSCAASGGSLSRYDMGWFRQAPGKEREFVARISWSGTTKYYADAVKGRFAISRDNAKNTVYLQMNSLKPEDTAVYYCAAAFYGNRGYYDVNAYTSSGQGTQVTVS
chain 2: GPPCPPCPAPEFLGGPSVFLFPPKPKDTLMISRTPEVTCVVVDVSQEDPEVQFNWYVDGVEVHNAKTKPREEQFNSTYRVVSVLTVLHQDWLNGKEYKCKVSNKGLPSSIEKTISKAKGQPREPQVCTLPPSQEEMTKNQVSLSCAVKGFYPSDIAVEWESNGQPENNYKTTPPVLDSDGSFFLVSRLTVDKSRWQEGNVFSCSVMHEALHNHYTQKSLSLSLGKRSEVQLLESGGGLVQPGGSLRLSCAASGFTFGNYDMAWVRQAPGKRPEWVSSIDTGGDITHYADSVKGRFTISRDNAKNTLYLQMNSLRPEDTAVYWCATDEEYALGPNEFDYYGQGTLVTVSS

Max effect: 10%
B6: CIgG4F2A1(RS) (Fc fusion)
chain 1: B5 chain 1 with T283D, K292E, K303Q, A325V, F327L, A338T, T340S, S341Y, S342W, Q347R
chain 2: B5 chain 2

EC50: 800 nM | Max effect: 55%
B8: CIgG4F1A1(G4S)2 (Fc fusion)
chain 1: GPPCPPCPAPEFLGGPSVFLFPPKPKDTLMISRTPEVTCVVVDVSQEDPEVQFNWYVDGVEVHNAKTKPREEQFNSTYRVVSVLTVLHQDWLNGKEYKCKVSNKGLPSSIEKTISKAKGQPREPQVYTLPPCQEEMTKNQVSLWCLVKGFYPSDIAVEWESNGQPENNYKTTPPVLDSDGSFFLYSRLTVDKSRWQEGNVFSCSVMHEALHNHYTQKSLSLSLGKGGGGSGGGGSDVQLQESGGGLVQAGGSLKLSCAASGGSLSRYDMGWFRQAPGKEREFVARISWSGTTKYYADAVKGRFAISRDNAKNTVYLQMNSLKPEDTAVYYCAAAFYGNRGYYDVNAYTSSGQGTQVTVS
chain 2: GPPCPPCPAPEFLGGPSVFLFPPKPKDTLMISRTPEVTCVVVDVSQEDPEVQFNWYVDGVEVHNAKTKPREEQFNSTYRVVSVLTVLHQDWLNGKEYKCKVSNKGLPSSIEKTISKAKGQPREPQVCTLPPSQEEMTKNQVSLSCAVKGFYPSDIAVEWESNGQPENNYKTTPPVLDSDGSFFLVSRLTVDKSRWQEGNVFSCSVMHEALHNHYTQKSLSLSLGKGGGGSGGGGSEVQLLESGGGLVQPGGSLRLSCAASGFTFGNYDMAWVRQAPGKRPEWVSSIDTGGDITHYADSVKGRFTISRDNAKNTLYLQMNSLRPEDTAVYWCATDEEYALGPNEFDYYGQGTLVTVSS

More lines, now with the values behind:

B1: CIgG4E4A1(G4S)3 (Fc fusion)
chain 1: GPPCPPCPAPEFLGGPSVFLFPPKPKDTLMISRTPEVTCVVVDVSQEDPEVQFNWYVDGVEVHNAKTKPREEQFNSTYRVVSVLTVLHQDWLNGKEYKCKVSNKGLPSSIEKTISKAKGQPREPQVYTLPPCQEEMTKNQVSLWCLVKGFYPSDIAVEWESNGQPENNYKTTPPVLDSDGSFFLYSRLTVDKSRWQEGNVFSCSVMHEALHNHYTQKSLSLSLGKGGGGSGGGGSGGGGSDVQLQESGGGLVQPGGSLRLSCAASGFRFSNYAMRWYRQAPGKEREFVARISSTGFITRYTASVRDRFTISRDNDKNMMYLQLNKLTPQDTAHYYCNAESTDYWGQGTQVTVS
chain 2: B2 chain 2
EC50: 22 nM | Max effect: 95%

B3: CIgG4F1A1(G4S)1 (Fc fusion)
chain 1: B4 chain 1 with D286T, E295K, Q306K, V328A, L330F, T341A, S343T, Y344S, W345S, R350Q
chain 2: B4 chain 2
Max effect: 30%

B7: CIgG4E4A1(G4S)2 (Fc fusion)
chain 1: GPPCPPCPAPEFLGGPSVFLFPPKPKDTLMISRTPEVTCVVVDVSQEDPEVQFNWYVDGVEVHNAKTKPREEQFNSTYRVVSVLTVLHQDWLNGKEYKCKVSNKGLPSSIEKTISKAKGQPREPQVYTLPPCQEEMTKNQVSLWCLVKGFYPSDIAVEWESNGQPENNYKTTPPVLDSDGSFFLYSRLTVDKSRWQEGNVFSCSVMHEALHNHYTQKSLSLSLGKGGGGSGGGGSDVQLQESGGGLVQPGGSLRLSCAASGFRFSNYAMRWYRQAPGKEREFVARISSTGFITRYTASVRDRFTISRDNDKNMMYLQLNKLTPQDTAHYYCNAESTDYWGQGTQVTVS
chain 2: B8 chain 2
EC50: 48 nM | Max effect: 90%
